Where two headings read alike, the source gives them in different places.
Columns and labels:
Assay in all cases: cell-based or functional assay
[1] = target: T1, ROR1 expressed on cell surface (Jeko-1 cell line, AMB-LC-0003T and AMB-LC-0002T patient-derived lung cancer … (human, UniProt Q01973 30-937))
[2] = target: T1, ROR1 expressed on cell surface (Jeko-1 …); remark: listed apart in the source
[3] = target: T1, ROR1 expressed on cell surface (Jeko-1 …); remark: listed apart in the source

T1 sequence (Q01973 30-937): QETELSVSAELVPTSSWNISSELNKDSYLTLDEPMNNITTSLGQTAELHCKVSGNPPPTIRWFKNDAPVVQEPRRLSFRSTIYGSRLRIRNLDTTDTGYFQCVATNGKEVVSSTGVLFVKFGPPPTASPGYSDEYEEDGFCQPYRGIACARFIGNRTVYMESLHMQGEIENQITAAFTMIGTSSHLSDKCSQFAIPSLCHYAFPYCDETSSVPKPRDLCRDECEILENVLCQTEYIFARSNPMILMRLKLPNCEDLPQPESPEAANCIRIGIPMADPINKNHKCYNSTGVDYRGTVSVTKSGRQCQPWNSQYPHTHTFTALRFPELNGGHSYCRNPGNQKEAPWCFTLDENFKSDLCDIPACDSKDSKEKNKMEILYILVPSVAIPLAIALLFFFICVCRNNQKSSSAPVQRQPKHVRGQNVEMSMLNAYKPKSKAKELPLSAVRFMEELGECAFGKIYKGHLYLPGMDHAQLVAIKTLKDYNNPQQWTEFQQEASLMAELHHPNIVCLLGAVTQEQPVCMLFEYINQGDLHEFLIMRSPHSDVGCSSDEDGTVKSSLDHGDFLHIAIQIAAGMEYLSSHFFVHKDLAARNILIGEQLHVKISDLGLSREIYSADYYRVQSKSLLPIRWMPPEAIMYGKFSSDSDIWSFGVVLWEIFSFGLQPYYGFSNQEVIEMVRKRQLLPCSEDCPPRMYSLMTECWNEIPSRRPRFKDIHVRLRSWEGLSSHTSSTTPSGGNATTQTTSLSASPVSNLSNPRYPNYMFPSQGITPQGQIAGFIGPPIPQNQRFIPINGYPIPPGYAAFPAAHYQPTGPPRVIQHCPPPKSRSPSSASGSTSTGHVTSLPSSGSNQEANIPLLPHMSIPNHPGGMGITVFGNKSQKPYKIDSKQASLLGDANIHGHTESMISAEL

- Fold Change of IC50, AMB-LC-0002T/AMB-LC-0003T [1]: 56.3 fold
- IC50 (nM), spheroid volume after 6 days of treatment, AMB-LC-0003T (high ROR1 expression) [1]: 2.88 nM
- IC50 (nM), spheroid volume, AMB-LC-0002T (very low ROR1 expression) [1]: 162 nM
- Fold Change of IC50, AMB-LC-0002T/AMB-LC-0003T [2]: 81.4 fold
- IC50 (nM), spheroid volume, AMB-LC-0002T (low ROR1 expression) [2]: 187 nM
- IC50 (nM), spheroid volume, AMB-LC-0003T (high ROR1 expression) [2]: 2.3 nM
- IC50, spheroid volume, AMB-LC-0002T (low ROR1 expression) [3]: ≥ 100 nM
B1: P015042-vc-PAB-MMAE (antibody, IgG1, V domains shown)
VH: EVQLLESGGGLVQPGGSLRLSCAASGFTFSDYAMSWVRQAPGKGLEWVSVISSDGGSIYYADSVKGRFTISRDNSKNTLYLQMNSLRAEDTAVYYCAKDRSRDMEVDFDYWGQGTLVTVSS
VL: QSVLTQPPSASGTPGQRVTISCSGSSSNIGSNYVTWYQQLPGTAPKLLIYDSSQRPSGVPDRFSGSKSGTSASLAISGLRSEDEADYYCGTWDYSLSGYVFGGGTKLTVL
modifications: maleimidocaproyl-valine-citrulline-p-aminobenzyloxycarbonyl monomethyl auristatin E on cysteine sulfhydryls of reduced disulfides; positions not given; average 3.3 drugs per antibody

From patent US20260028400A1 (AIMED BIO, published 2026)
